Data taken from article doi:10.1101/2023.04.12.536520, “Structural bases for the Charcot–Marie–Tooth disease induced by single amino acid substitutions of myelin protein zero” (bioRxiv, 2023).
Changes are numbered by the printed parent chain. Names and notes keep the numbering of the source.

B1: human MPZ-ECD with a C-terminal histidine-tag (ECD-His), wild type (domain or fragment)
chain: MGIVVYTDREVHGAVGSRVTLHCSFWSSEWVSDDISFTWRYQPEGGRDAISIFHYAKGQPYIDEVGTFKERIQWVGDPRWKDGSIVIHNLDYSDNGTFTCDVKNPPDIVGKTSQVTLYVFEKVPTR
notes: two artificial amino acids at the N-terminus; myelin protein zero (MPZ, P0), human, extracellular domain I1 through V121; I1 is residue 30 of the precursor P25189; linker between the ECD and the His6-tag; Non-glycosylated; also called hMPZ-ECD-His; WT; not shown: His6, C-terminal, kept
B2: ECD-His A47V variant (domain or fragment, human)
chain: B1 chain with A49V
notes: two artificial amino acids at the N-terminus; myelin protein zero (MPZ, P0), human, extracellular domain I1 through V121; I1 is residue 30 of the precursor P25189; linker between the ECD and the His6-tag; CMT2-related substitution at the trans interface; not shown: His6, C-terminal, kept
B3: ECD-His R38A variant (domain or fragment, human)
chain: B1 chain with R40A
notes: two artificial amino acids at the N-terminus; myelin protein zero (MPZ, P0), human, extracellular domain I1 through V121; I1 is residue 30 of the precursor P25189; linker between the ECD and the His6-tag; trans interface substitution; not shown: His6, C-terminal, kept
B4: ECD-His H52R variant (domain or fragment, human)
chain: B1 chain with H54R
notes: two artificial amino acids at the N-terminus; myelin protein zero (MPZ, P0), human, extracellular domain I1 through V121; I1 is residue 30 of the precursor P25189; linker between the ECD and the His6-tag; DSS-related substitution at the trans interface; not shown: His6, C-terminal, kept
B5: ECD-His D32N variant (domain or fragment, human)
chain: B1 chain with D34N
notes: two artificial amino acids at the N-terminus; myelin protein zero (MPZ, P0), human, extracellular domain I1 through V121; I1 is residue 30 of the precursor P25189; linker between the ECD and the His6-tag; CMT1B-related substitution at the head-to-head interface; the recombinant protein was non-glycosylated; not shown: His6, C-terminal, kept
B6: ECD-His D46V variant (domain or fragment, human)
chain: B1 chain with D48V
notes: as for B2
B7: ECD-His D32G variant (domain or fragment, human)
chain: B1 chain with D34G
notes: two artificial amino acids at the N-terminus; myelin protein zero (MPZ, P0), human, extracellular domain I1 through V121; I1 is residue 30 of the precursor P25189; linker between the ECD and the His6-tag; CMT2-related substitution at the head-to-head interface; not shown: His6, C-terminal, kept
B8: ECD-His E68V variant (domain or fragment, human)
chain: B1 chain with E70V
notes: two artificial amino acids at the N-terminus; myelin protein zero (MPZ, P0), human, extracellular domain I1 through V121; I1 is residue 30 of the precursor P25189; linker between the ECD and the His6-tag; CMT2-related substitution at the cis interface; not shown: His6, C-terminal, kept
B9: ECD-His R45A variant (domain or fragment, human)
chain: B1 chain with R47A
notes: as for B3
B10: human MPZ-ECD without a histidine-tag (ECD) (domain or fragment)
chain: MGIVVYTDREVHGAVGSRVTLHCSFWSSEWVSDDISFTWRYQPEGGRDAISIFHYAKGQPYIDEVGTFKERIQWVGDPRWKDGSIVIHNLDYSDNGTFTCDVKNPPDIVGKTSQVTLYVFEKV
notes: two artificial amino acids at the N-terminus; myelin protein zero (MPZ, P0), human, extracellular domain I1 through V121; I1 is residue 30 of the precursor P25189; Non-glycosylated; also called hMPZ-ECD

Target: the molecule itself
Assay: SEC-MALS; ECD-His injected at 52 µM; Superdex 200 Increase 10/300 GL; standard buffer (20 mM Tris-HCl pH 7.4, 100 mM NaCl); room temperature; 8-mer to monomers

| Protein | stoichiometry N |
| --- | --- |
| B1 | 8 |

Target: the molecule itself
Assay: SEC; free ECD or ECD-His variants; HiLoad Superdex 200 16/600 (Fig. 4A-C) or Superdex 200 Increase 10/300 (Fig. 3, Fig. S1); standard buffer (20 mM Tris-HCl pH 7.4, 100 mM NaCl); 4 °C; 8-mer to monomers

| Protein | stoichiometry N |
| --- | --- |
| B2 | 8 |
| B3 | 8 |
| B4 | 8 |
| B5 | 8 |
| B6 | 8 |
| B7 | 8 |
| B8 | 8 |
| B9 | 8 |
| B10 | 8 |
